# According to paper PMC9317961, “Deafness-related protein PDZD7 forms complex with the C-terminal tail of FCHSD2” (Biochemical Journal, 2022):
# T1: PDZD7 PDZ3 (a.a. 842-946) (mouse, UniProt E9Q9W7 842-946)
# T1 construct: As used in ITC; also called WT PDZD7 PDZ3; source: E. coli BL21 (DE3), purified (nickel-NTA, SEC); not shown: Trx (from the vector pET.32M.3C)
# T1 sequence (looked up): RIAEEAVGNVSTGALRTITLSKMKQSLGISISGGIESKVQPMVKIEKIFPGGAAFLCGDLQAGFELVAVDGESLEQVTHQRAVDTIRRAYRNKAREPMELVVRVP
# T2: Trx-tagged PDZD7 PDZ3 (mouse, UniProt E9Q9W7 842-946)
# T2 construct: As used in SEC-MALS, thioredoxin tag kept; monomer by SEC-MALS; also called Trx-PDZD7 PDZ3; source: E. coli BL21 (DE3), purified (nickel-NTA, SEC)
# T2 sequence (looked up): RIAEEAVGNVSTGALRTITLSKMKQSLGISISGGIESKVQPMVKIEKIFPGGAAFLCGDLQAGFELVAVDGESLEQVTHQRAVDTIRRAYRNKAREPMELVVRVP
# Assays:
# [1] = target: T1, PDZD7 PDZ3 (a.a. 842-946); experiment: ITC; MicroCal iTC200, 25°C; ~500 μM protein in the syringe titrated into ~50 μM partner in the cell; one-site binding model; conditions: both partners purified
# Trx-tagged PDZD7 PDZ3 = target: T2, Trx-tagged PDZD7 PDZ3; experiment: SEC-MALS; Superose 12 10/300 GL column, miniDAWN and Optilab detectors; ~300 μl of 50 μM protein loaded; Trx-tagged proteins alone and mixed; conditions: both partners purified
Kd [1] [µM],stoichiometry N (Trx-tagged PDZD7 PDZ3),Binder
~1.51,–,"TEKMEDVEITLV (peptide, UniProt Q3USJ8 729-740, looked up, As used in ITC; also called WT FCHSD2 tail; source: E. coli BL21 (DE3), purified (nickel-NTA, SEC)) [FCHSD2 tail (a.a. 729-740)]"
–,1,"TEKMEDVEITLV (peptide, UniProt Q3USJ8 729-740, looked up, FCHSD2, residues 729-740; As used in SEC-MALS, thioredoxin tag kept; monomer by SEC-MALS; also called Trx-FCHSD2 tail; source: E. coli BL21 (DE3), purified (nickel-NTA, SEC)) [Trx-tagged FCHSD2 tail]"
